Experimental findings from publication PMC7756140 are described below.

Some targets named below: CCR5^QTY – SZ190b (SF9); CCR5^QTY (SF9); CCR5^QTY (E. coli); CCR5^QTY – SZ218a (SF9); CXCR4^QTY (E. coli).
What all share (experiment): MST
Assay [1] concerns the target CCR5^QTY – SZ218a (E. coli).
In assay [2] the target is CCR5^QTY – SZ190b (E. coli).
The target in assay [3] is CXCR4^QTY – SZ158a (E. coli).

As for “CCL5 (from UniProt P13501 24-91) (ligand)”, the Kd – broadly, the equilibrium constant for the complex coming apart – was 37.8 nM with CCR5^QTY – SZ190b (SF9); 41.1 nM with CCR5^QTY (SF9); 87.7 nM in assay [1]; 6.8 nM with CCR5^QTY (E. coli); 51.7 nM with CCR5^QTY – SZ218a (SF9); 55.8 nM in assay [2].

As for HIV-1 coat glycoprotein gp41-120, the Kd in assay [3] worked out at 200 nM; with CXCR4^QTY (E. coli) it was 7 nM.
